The text below walks through data of patent US20100015650.

This series has as its target T1, BRB1 tyrosine kinase substrate peptide.
T1 chain: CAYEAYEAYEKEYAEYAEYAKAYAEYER

B1: RON (protein)
chain: SYWWRRKQLVLPPNLNDLASLDQTAGATPLPILYSGSDYRSGLALPAIDGLDSTTCVHGASFSDSEDESCVPLLRKESIQLRDLDSALLAEVKDVLIPHERVVTHSDRVIGKGHFGVVYHGEYIDQAQNRIQCAIKSLSRITEMQQVEAFLREGLLMRGLNHPNVLALIGIMLPPEGLPHVLLPYMCHGDLLQFIRSPQRNPTVKDLISFGLQVARGMEYLAEQKFVHRDLAARNCMLDESFTVKVADFGLARDILDREYYSVQQHRHARLPVKWMALESLQTYRFTTKSDVWSFGVLLWELLTRGAPPYRHIDPFDLTHFLAQGRRLPQPEYCPDSLYQVMQQCWEADPAVRPTFRVLVGEVEQIVSALLGDHYVQLPATYMNLGPSTSHEMNVRPEQPQFSPMPGNVRRPRPLSEPPRPT
In the case of B1, the Signal to Noise ratio with BRB1 Peptide (TR-FRET kinase assay; kinase 0.25 nM) came out at 3.5.

B2: RET (protein)
chain: HCYHKFAHKPPISSAEMTFRRPAQAFPVSYSSSGARRPSLDSMENQVSVDAFKILEDPKWEFPRKNLVLGKTLGEGEFGKVVKATAFHLKGRAGYTTVAVKMLKENASPSELRDLLSEFNVLKQVNHPHVIKLYGACSQDGPLLLIVEYAKYGSLRGFLRESRKVGPGYLGSGGSRNSSSLDHPDERALTMGDLISFAWQISQGMQYLAEMKLVHRDLAARNILVAEGRKMKISDFGLSRDVYEEDSYVKRSQGRIPVKWMAIESLFDHIYTTQSDVWSFGVLLWEIVTLGGNPYPGIPPERLFNLLKTGHRMERPDNCSEEMYRLMLQCWKQEPDKRPVFADISKDLEKMMVKRRDYLDLAASTPSDSLIYDDGLSEEETPLVDCNNAPLPRALPSTWIENKLYGMSDPNWPGESPVPLTRADGTNTGFPRYPNDSVYANWMLSPSAAKLMDTFDS
B2: the Signal to Noise ratio with BRB1 Peptide (TR-FRET kinase assay; kinase 0.5 nM) stood at 20.3.

B3: TIE2 (protein)
chain: QLKRANVQRRMAQAFQNVREEPAVQFNSGTLALNRKVKNNPDPTIYPVLDWNDIKFQDVIGEGNFGQVLKARIKKDGLRMDAAIKRMKEYASKDDHRDFAGELEVLCKLGHHPNIINLLGACEHRGYLYLAIEYAPHGNLLDFLRKSRVLETDPAFAIANSTASTLSSQQLLHFAADVARGMDYLSQKQFIHRDLAARNILVGENYVAKIADFGLSRGQEVYVKKTMGRLPVRWMAIESLNYSVYTTNSDVWSYGVLLWEIVSLGGTPYCGMTCAELYEKLPQGYRLEKPLNCDDEVYDLMRQCWREKPYERPSFAQILVSLNRMLEERKTYVNTTLYEKFTYAGIDCSAEEAA
As for B3, the Signal to Noise ratio with BRB1 Peptide (TR-FRET kinase assay; kinase 0.5 nM) was 17.7.

B4: PDGFRβ (protein)
chain: QKKPRYEIRWKVIESVSSDGHEYIYVDPMQLPYDSTWELPRDQLVLGRTLGSGAFGQVVEATAHGLSHSQATMKVAVKMLKSTARSSEKQALMSELKIMSHLGPHLNVVNLLGACTKGGPIYIITEYCRYGDLVDYLHRNKHTFLQHHSDKRRPPSAELYSNALPVGLPLPSHVSLTGESDGGYMDMSKDESVDYVPMLDMKGDVKYADIESSNYMAPYDNYVPSAPERTCRATLINESPVLSYMDLVGFSYQVANGMEFLASKNCVHRDLAARNVLICEGKLVKICDFGLARDIMRDSNYISKGSTFLPLKWMAPESIFNSLYTTLSDVWSFGILLWEIFTLGGTPYPELPMNEQFYNAIKRGYRMAQPAHASDEIYEIMQKCWEEKFEIRPPFSQLVLLLERLLGEGYKKKYQQVDEEFLRSDHPAILRSQARLPGFHGLRSPLDTSSVLYTAVQPNEGDNDYIIPLPDPKPEVADEGPLEGSPSLASSTLNEVNTSSTISCDSPLEPQDEPEPEPQLELQVEPEPELEQLPDSGCPAPRAEAEDSFL
Take B4: the Signal to Noise ratio with BRB1 Peptide (TR-FRET kinase assay; kinase 0.25 nM) came out at 4.7.

B5: ROS (protein)
chain: HRRLKNQKSAKEGVTVLINEDKELAELRGLAAGVGLANACYAIHTLPTQEEIENLPAFPREKLTLRLLLGSGAFGEVYEGTAVDILGVGSGEIKVAVKTLKKGSTDQEKIEFLKEAHLMSKFNHPNILKQLGVCLLNEPQYIILELMEGGDLLTYLRKARMATFYGPLLTLVDLVDLCVDISKGCVYLERMHFIHRDLAARNCLVSVKDYTSPRIVKIGDFGLARDIYKNDYYRKRGEGLLPVRWMAPESLMDGIFTTQSDVWSFGILIWEILTLGHQPYPAHSNLDVLNYVQTGGRLEPPRNCPDDLWNLMTQCWAQEPDQRPTFHRIQDQLQLFRNFFLNSIYKSRDEANNSGVINESFEGEDGDVICLNSDDIMPVALMETKNREGLNYMVLATECGQGEEKSEGPLGSQESESCGLRKEEKEPHADKDFCQEKQVAYCPSGKPEGLNYACLTHSGYGDGSD
In the case of B5, the Signal to Noise ratio with BRB1 Peptide (TR-FRET kinase assay; kinase 0.25 nM) stood at 24.5.

B6: MUSK (protein)
chain: CCRRRKQWKNKKRESAAVTLTTLPSELLLDRLHPNPMYQRMPLLLNPKLLSLEYPRNNIEYVRDIGEGAFGRVFQARAPGLLPYEPFTMVAVKMLKEEASADMQADFQREAALMAEFDNPNIVKLLGVCAVGKPMCLLFEYMAYGDLNEFLRSMSPHTVCSLSHSDLSMRAQVSSPGPPPLSCAEQLCIARQVAAGMAYLSERKFVHRDLATRNCLVGENMVVKIADFGLSRNIYSADYYKANENDAIPIRWMPPESIFYNRYTTESDVWAYGVVLWEIFSYGLQPYYGMAHEEVIYYVRDGNILSCPENCPVELYNLMRLCWSKLPADRPSFTSIHRILERMCERAEGTVSV
For the protein B6, the Signal to Noise Ratio with BRB1 Peptide (TR-FRET kinase assay; kinase 1 nM) came out at 3.1.

B7: ROR2 (protein)
chain: VCMCRNKQKASASTPQRRQLMASPSQDMEMPLINQHKQAKLKEISLSAVRFMEELGEDRFGKVYKGHLFGPAPGEQTQAVAIKTLKDKAEGPLREEFRHEAMLRARLQHPNVVCLLGVVTKDQPLSMIFSYCSHGDLHEFLVMRSPHSDVGSTDDDRTVKSALEPPDFVHLVAQIAAGMEYLSSHHVVHKDLATRNVLVYDKLNVKISDLGLFREVYAADYYKLLGNSLLPIRWMAPEAIMYGKFSIDSDIWSYGVVLWEVFSYGLQPYCGYSNQDVVEMIRNRQVLPCPDDCPAWVYALMIECWNEFPSRRPRFKDIHSRLRAWGNLSNYNSSAQTSGASNTTQTSSLSTSPVSNVSNARYVGPKQKAPPFPQPQFIPMKGQIRPMVPPPQLYVPVNGYQPVPAYGAYLPNFYPVQIPMQMAPQQVPPQMVPKPSSHHSGSGSTSTGYVTTAPSNTSMADRAALLSEGADDTQNAPEDGAQSTVQEAEEEEEGSVPETELLGDCDTLQVDEAQVQLEA
In the case of B7, the Signal to Noise Ratio with BRB1 Peptide (TR-FRET kinase assay; kinase 20 nM) amounted to 1.

B8: PDGFRa (protein)
chain: KQKPRYEIRWRVIESISPDGHEYIYVDPMQLPYDSRWEFPRDGLVLGRVLGSGAFGKVVEGTAYGLSRSQPVMKVAVKMLKPTARSSEKQALMSELKIMTHLGPHLNIVNLLGACTKSGPIYIITEYCFYGDLVNYLHKNRDSFLSHHPEKPKKELDIFGLNPADESTRSYVILSFENNGDYMDMKQADTTQYVPMLERKEVSKYSDIQRSLYDRPASYKKKSMLDSEVKNLLSDDNSEGLTLLDLLSFTYQVARGMEFLASKNCVHRDLAARNVLLAQGKIVKICDFGLARDIMHDSNYVSKGSTFLPVKWMAPESIFDNLYTTLSDVWSYGILLWEIFSLGGTPYPGMMVDSTFYNKIKSGYRMAKPDHATSEVYEIMVKCWNSEPEKRPSFYHLSEIVENLLPGQYKKSYEKIHLDFLKSDHPAVARMRVDSDNAYIGVTYKNEEDKLKDWEGGLDEQRLSADSGYIIPLPDIDPVPEEEDLGKRNRHSSQTSEESAIETGSSSSTFIKREDETIEDIDMMDDIGIDSSDLVEDSFL
B8: the Signal to Noise ratio with BRB1 Peptide (TR-FRET kinase assay; kinase 0.5 nM) worked out at 8.

B9: TYRO3 (protein)
chain: LRKRRKETRFGQAFDSVMARGEPAVHFRAARSFNRERPERIEATLDSLGISDELKEKLEDVLIPEQQFTLGRMLGKGEFGSVREAQLKQEDGSFVKVAVKMLKADIIASSDIEEFLREAACMKEFDHPHVAKLVGVSLRSRAKGRLPIPMVILPFMKHGDLHAFLLASRIGENPFNLPLQTLIRFMVDIACGMEYLSSRNFIHRDLAARNCMLAEDMTVCVADFGLSRKIYSGDYYRQGCASKLPVKWLALESLADNLYTVQSDVWAFGVTMWEIMTRGQTPYAGIENAEIYNYLIGGNRLKQPPECMEDVYDLMYQCWSADPKQRPSFTCLRMELENILGQLSVLSASQDPLYINIERAEEPTAGGSLELPGRDQPYSGAGDGSGMGAVGGTPSDCRYILTPGGLAEQPGQAEHQPESPLNETQRLLLLQQGLLPHSSC
Consider B9, for which the Signal to Noise ratio with BRB1 Peptide (TR-FRET kinase assay; kinase 0.25 nM) turned out to be 6.1.

B10: ROR1 (protein)
chain: CRNNQKSSSAPVQRQPKHVRGQNVEMSMLNAYKPKSKAKELPLSAVRFMEELGECAFGKIYKGHLYLPGMDHAQLVAIKTLKDYNNPQQWTEFQQEASLMAELHHPNIVCLLGAVTQEQPVCMLFEYINQGDLHEFLIMRSPHSDVGCSSDEDGTVKSSLDHGDFLHIAIQIAAGMEYLSSHFFVHKDLAARNILIGEQLHVKISDLGLSREIYSADYYRVQSKSLLPIRWMPPEAIMYGKFSSDSDIWSFGVVLWEIFSFGLQPYYGFSNQEVIEMVRKRQLLPCSEDCPPRMYSLMTECWNEIPSRRPRFKDIHVRLRSWEGLSSHTSSTTPSGGNATTQTTSLSASPVSNLSNPRYPNYMFPSQGITPQGQIAGFIGPPIPQNQRFIPINGYPIPPGYAAFPAAHYQPTGPPRVIQHCPPPKSRSPSSASGSTSTGHVTSLPSSGSNQEANIPLLPHMSIPNHPGGMGITVFGNKSQKPYKIDSKQASLLGDANIHGHTESMISAEL
As for B10, the Signal to Noise Ratio with BRB1 Peptide (TR-FRET kinase assay; kinase 20 nM) turned out to be 1.1.

B11: MET (protein)
chain: KKRKQIKDLGSELVRYDARVHTPHLDRLVSARSVSPTTEMVSNESVDYRATFPEDQFPNSSQNGSCRQVQYPLTDMSPILTSGDSDISSPLLQNTVHIDLSALNPELVQAVQHVVIGPSSLIVHFNEVIGRGHFGCVYHGTLLDNDGKKIHCAVKSLNRITDIGEVSQFLTEGIIMKDFSHPNVLSLLGICLRSEGSPLVVLPYMKHGDLRNFIRNETHNPTVKDLIGFGLQVAKGMKYLASKKFVHRDLAARNCMLDEKFTVKVADFGLARDMYDKEYYSVHNKTGAKLPVKWMALESLQTQKFTTKSDVWSFGVLLWELMTRGAPPYPDVNTFDITVYLLQGRRLLQPEYCPDPLYEVMLKCWHPKAEMRPSFSELVSRISAIFSTFIGEHYVHVNATYVNVKCVAPYPSLLSSEDNADDEVDTRPASFWETS
On to B11, for which the Signal to Noise ratio with BRB1 Peptide (TR-FRET kinase assay; kinase 0.5 nM) is 24.2.
